This data set concerns the molecule itself. Briefly: crystal structure; LTC4S with SeDDM and GSH, sitting-drop vapour diffusion at 293 K, 0.1 M MES-NaOH pH 6.5, 1.6 M ammonium sulfate, 0.4 M MgCl2; space group F23, Se MAD phasing, refined at 3.2 A.

B1: Human leukotriene C4 synthase (enzyme)
chain: MKDEVALLAAVTLLGVLLQAYFSLQVISARRAFRVSPPLTTGPPEFERVYRAQVNCSEYFPLFLATLWVAGIFFHEGAAALCGLVYLFARLRYFQGYARSAQLRLAPLYASARALWLLVALAALGLLAHFLPAALRAALLGRLRTLLPWA
notes: Leukotriene C4 synthase, human; 17 kDa monomer; construct as described previously (Ago et al., 2007; Saino et al., 2011); also called LTC4S
Turning to B1, the “stoichiometry N” value was found to be 3.

The values are drawn from paper PMC3232166, “Seleno-detergent MAD phasing of leukotriene C4 synthase in complex with dodecyl-β-D-selenomaltoside” (Acta Crystallographica Section F, 2011).
